Results on 5 molecules are retold here after patent US10280200B2, “Non-natural consensus albumin binding domains” (Janssen Biotech, Inc., priority 2012, dated 2019).

The nature of data set [1]: Thermal stability by differential scanning calorimetry (DSC) in PBS. Type of data set: physicochemical. Here is the method:
A second identical scan was completed on the sample in order to assess the reversibility of thermal folding/unfolding. Data was fit to a 2-state unfolding model in order to calculate the melting temperature.
The melting temperature of ABDCon12 was determined by differential scanning calorimetry using the procedures outlined in Example 2 above in order to investigate the mechanism of stabilization for this molecule.
On the technique in general: In DSC, transitions show as peaks or steps in heat flow.

Data set [2] in a line: Stability on incubation in PBS at 37° C. for 28 days, SDS-PAGE and Mass Spectrometry. Type of data set: physicochemical. As to conditions: PBS pH 7.4, 37° C. Here is the method: The FN3 domain-ABDCon fusion proteins were generated using standard cloning techniques. The amino acid sequence of one of the fusion proteins, Tencon-ABDCon is shown in SEQ ID NO: 41. Other FN3 domain-ABDCon fusion proteins made were Tencon25-ABDCon, 83-ABDCon and 71-ABDCon. These proteins were produced with c-terminal poly histidine tags and purified by a combination of nickel affinity and size exclusion chromatography using standard methods. Each purified molecule was incubated in PBS pH 7.4 at 37° C. for 28 days before analysis by SDS-PAGE and Mass Spectrometry.
However one peptide sequence, TIDEWL (SEQ ID NO: 43), is present N-terminal to 5 of these protein domains. […] This protein was expressed with an N-terminal poly histidine tag and purified to homogeneity using standard methods for nickel affinity chromatography and size exclusion chromatography. Purified ABDCon12 was incubated at 37° C. in PBS for 28 days and stability assessed by SDS-PAGE and mass spectrometry.

In data set [3] the target is human serum albumin (Homo sapiens, UniProt P02768). The experiment in a line: Kinetics of binding to immobilized human serum albumin, ProteOn XPR-36 surface plasmon resonance. Conditions: read-out: KD (affinity) to human albumin, conditions specified herein. Here is the method: Human (SEQ ID NO: 36), Rhesus (SEQ ID NO: 37), and murine (SEQ ID NO: 38) serum albumins were purchased from Sigma (Catalogue # A4327 for human, #A3559 for murine, and #A4297 for rhesus) and resuspended in PBS at different concentrations. Each serum albumin was directly immobilized on a ligand channel in the vertical orientation of a GLC chip via standard amine coupling at 2.1 μg/mL at pH 5.0 to obtain surfaces with ligand densities of 500-1000 resonance units. […] The dissociation phases for all concentrations were monitored for two hours at a flow rate of 100 μL/min using PBST (PBS, 0.005% Tween20) as running buffer. A sixth sample (buffer only) was injected to monitor the baseline stability. The surfaces were regenerated using 1 short pulse (18 μL) of 0.8% phosphoric acid.
The raw response data were first processed by subtracting the buffer only responses and the non-specific binding between the analytes and the chip. Processed data of all five concentrations were globally fit to a 1:1 simple langmuir binding model for each ligand surface.
A general note: In SPR one partner is held on a chip, and binding of the other changes the refractive index at the surface.

Data set [4] can be described thus: Solubility after expression and purification from E. coli. Type of data set: physicochemical. Conditions: expressed and purified from E. coli.
The nature of data set [5]: Serum half-life / pharmacokinetics of fusion proteins in mice (MSD sandwich ELISA of serum). The data set is classed as in vivo, BALB/c female mice. Here is the method:
Tencon25 is a protein scaffold based on a consensus sequence of a fibronectin type III (FN3) repeat protein having a sequence shown in residues 1-90 of SEQ ID NO: 39, and described in US2011/0274623A1. […] The resulting fusion protein has a polypeptide sequence shown in SEQ ID NO: 39. A poly-histidine tag was incorporated at the C-terminus for purification purposes. […] BALB/c female mice were split into 3 groups (N=3 group 1 non-treated control, and N=33 groups 2-3). Mice were treated with a single intravenous dose of the Tencon25-ABDCon fusion protein at 2 mg/kg. The dosing was based upon the weight of the animals on the day of administration. The mice were euthanized at the following time points after the injection: 10 min, 30 min, 1, 4, 6, hours, and 1, 2, 3, 7, 10, 14 days. Blood samples were taken from each animal via cardiac puncture. The blood samples were allowed to clot at room temperature for 30 minutes, but no longer than 1 hour. The blood samples were then centrifuged at approximately 3,500 rpm for 15 minutes. Serum samples were analyzed using a homogenous sandwich ELISA on the Mesoscale Discovery platform. Streptavidin-Gold plates (Mesoscale Discovery) were blocked for 1 hour with Superblock (TBS) Tween-20 (Thermo). Polyclonal anti-Tencon25 antibody was used for both capture (biotinylated) and detection (labeled with MSD Sulfo-Tag (Mesoscale Discovery)) at 0.625 μg/ml. The antigen and antibodies were added to the plates, which were incubated for 2 hours with vigorous shaking at RT. Plates were washed with TBS-T (Sigma) and MSD Read Buffer with Surfactant (Mesoscale Discovery) was added. The plates were read using the MSD Sector Imager 6000. Data was analyzed using GraphPad Prism. Previous studies have shown that a similar, unfused Tencon molecule is cleared from the bloodstream quickly with a serum half-life of approximately 20 minutes in mice.
These molecules were dosed into mice at 2 mg/kg as described above in previous studies and analyzed using identical methods as described for the Tencon25-ABDCon fusions.
(In general: ELISA stands for enzyme-linked immunosorbent assay.)

As to “ABDCon12: ABDCon with TIDEWL added to the N-terminus, SEQ ID NO: 44 (TIDEWLLKEAKEKAIEELKKAGITSDYYFDLINKAKTVEGVNALKDEILKA; ABDCon12)”, the “melting temperature (thermal stability)” value in data set [1] is 90.9 °C. The “increase of melting temperature compared to the original ABDcon molecule” value in data set [1] (DSC in PBS) was 9.4 °. In data set [2], the “stability (degradation) after incubation” value was “degradation is occurring exclusively in the polyhistidine tag and not in the ABDCon12 sequence”.

The term Kd denotes the constant that tells how readily two partners part at equilibrium. For the molecule “ABDCon: non-natural albumin binding domain consensus, SEQ ID NO: 21: […] (LKEAKEKAIEELKKAGITSDYYFDLINKAKTVEGVNALKDEILKA; not fully specified)”, the Kd in data set [3] was found to be 0.075 nM.

As for “ABDCon11: ABDCon mutant A37Y, SEQ ID NO: 34 (LKEAKEKAIEELKKAGITSDYYFDLINKAKTVEGVNYLKDEILKA; Non-natural albumin binding domain ABDCon11)”, the “solubility of the expressed mutant” value in data set [4] was “insoluble”.

B1: Tencon25-ABDCon: fusion of ABDCon to the c-terminus of Tencon25 FN3 scaffold by a (G4S)2 linker, SEQ ID NO: 39 (protein)
chain: MLPAPKNLVVSEVTEDSARLSWTAPDAAFDSFLIQYQESEKVGEAIVLTVPGSERSYDLTGLKPGTEYTVSIYGVKGGHRSNPLSAIFTTGGGGSGGGGSLKEAKEKAIEELKKAGITSDYYFDLINKAKTVEGVNALKDEILKA
modifications: Fusion protein Tencon25-ABDcon
One may read the AUC as the area under the concentration-time curve, a measure of exposure. Take B1: in data set [5] (2 mg/kg intravenously), the AUC turned out to be 2054.332 µg·h/mL, the Clearance was 22.93 mL/day/kg, the “T (½)” value is 60.42 h and the “Volume of Distribution” value is 0.0832873 L/kg. Further, the serum half-life result in data set [5] (single intravenous dose 2 mg/kg) is “over 60 hours”. Besides, the “stability (degradation) after incubation” value in data set [2] was “degraded”.

B2: Tencon-ABDCon: FN3 domain-ABDCon fusion protein, SEQ ID NO: 41 (protein)
chain: MLPAPKNLVVSEVTEDSLRLSWTAPDAAFDSFLIQYQESEKVGEAINLTVPGSERSYDLTGLKPGTEYTVSIYGVKGGHRSNPLSAEFTTGGGGSGGGGSLKEAKEKAIEELKKAGITSDYYFDLINKAKTVEGVNALKDEILKA
modifications: Tencon-ABDCon fusion protein
On to B2, for which the “stability (degradation) after incubation” value in data set [2] was “degraded”.
